From the supplement of paper PMC9170038

Test system: MS2 coat protein
Assay: apparent KD of MS2 coat protein; designed switch direction (-1 OFF switch, 1 ON switch): -1; higher = weaker reporter binding
Outline: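 Designed RNA switches with common flanks were made on Illumina chips by stalled E. coli RNA polymerase. Titration with SNAP-549-labelled MS2 coat protein doubled from 0.7 or 1.5 nM up to 3 µM. Apparent KD is each design's median over clusters after curve-fitting normalised fluorescence.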

[1] = input ligand: microRNA oligo, concentration not stated
[2] = Eterna round: R95, input ligand: FMN 200 uM
[3] = Eterna round: R95, input ligand: microRNA oligo, concentration not stated
[4] = Eterna round: R95, input ligand: none

| Sequence | apparent KD of MS2 coat protein (input ligand: FMN 200 uM) [nM] | apparent KD of MS2 coat protein (input ligand: none) [nM] | apparent KD of MS2 coat protein [1] [nM] | apparent KD of MS2 coat protein [2] [nM] | apparent KD of MS2 coat protein [3] [nM] | apparent KD of MS2 coat protein [4] [nM] |
| --- | --- | --- | --- | --- | --- | --- |
| GGCGGACAUGAGGAUCACCCAUGUCAGGAUAUGGUGCGAUCGUCGAUAGACGAUAGCACCAGAAGGGACACGCC [Mat - Exclusion 1 - Eli Mod - D1] (Eterna round: R97, puzzle: Exclusion 1) | 22.2 | 19.8 |  |  |  |  |
| CUGUGCACGCUGCGGUCCUACAUGAGGAUCACCCAUGUGGUCUGGUGGCGUGGGUCACCGGACUUGGCUCGUCUUGC [salish99_S_TOV1_R5_062] (Eterna round: R97, puzzle: Sensor, turn-off variant 1) | 22.9 | 22.5 |  |  |  |  |
| UGAGACUGAGGAUAUACUAGCCCAUAAAGUGGGUUGUGGGUACAUGAGGAUCACCCAUGUAGAAGGCAGCCUCG [Omei Repeat Sequence v4] (Eterna round: R97, puzzle: Exclusion 2) | 516 | 75.4 |  |  |  |  |
| GAUGAGGUAGGAUAUACGAUAAUAUAGGGUAGAUAUAUAACACAUGAGGAUCACCCAUGUAGAAGGACCAGUAG [Mat - Exclusion 2 - Mod of my Tesla design - D66] (Eterna round: R96, puzzle: Exclusion 2) | 143 | 42.3 | 30.3 |  |  |  |
| UCAAGUUUUUUGUUUUUUAACAUGAGGAUCACCCAUGUAUUUUUAUAGUAUGUGUGAAUAAGAUCUCGUGGUCUUAU [JR_SV3TOV1_Sub099] (puzzle: Sensor v3, turn-off variant 1) |  |  |  | 31.8 | 78.1 | 36.5 |
| AGUAGUAGUAUCCGAUCCUACAUGAGGAUCACCCAUGUAGCUAGACGUGCACGCGAUGCUCGUCAGACUACCAGAUG [salish99_TOv1_r3_033] (puzzle: Sensor v3, turn-off variant 1) |  |  |  | 195 | 184 | 253 |
| CGGUGUAACACAGGAUAUCAUCGCAACUGACGUUGAGAAGGGUGACAUGAGGAUCACCCAUGUGAUUUCUCAAUAUUAUACAUC [Prohibition 83 - Jieux - Exclusion NG 1] (Eterna round: R96, puzzle: Exclusion NG 1) | 508 | 629 | 481 |  |  |  |
| GUAAUGUCAGGAUAUACUAAUGAUGAAUGAUCAGACAUUAUGUAGAAGGGACAUGAGGAUCACCCAUGUAAUAU [EX4 #4] (Eterna round: R97, puzzle: Exclusion 4) | 49.3 | 28.4 |  |  |  |  |
| CCUCCACAUGAGGAUCACCCAUGUCAGGAUAUCGCGCGCGCGUUUUCGGUCUUUCGCGCGAGAAGGGACGACUG (puzzle: Exclusion 1) |  |  |  |  | 29 |  |
| AUGUGCACGCUGCGAUCCUACAUGAGGAUCACCCAUGUGGUCUGGUGGCGUGGGUCACCGGACUUGGCUCGUCUUGU [salish99_S_TOV1_R5_081] (Eterna round: R97, puzzle: Sensor, turn-off variant 1) | 62.1 | 77.8 |  |  |  |  |
| CAGUACUGCAGGCUUCGGGACAUGAGGAUCACCCAUGUUCGUCUUAUUGAUCUAGGUACGCUGACGUACCUAGAUCU [JL-sv1-2.16 Brourd mod] (puzzle: Sensor v3, turn-off variant 1) |  |  |  | 16.7 | 18.6 | 15.4 |
| AUGCCCUGAGGAUAUCUCAUCCCGCACAUGAGGAUCACCCAUGUUCUUCUCCGGGCUCCGAGAGAAGGCAGGCCUA [Armus6] (Eterna round: R97, puzzle: Exclusion 5) | 68.2 | 102 |  |  |  |  |
| UAGCAUUGCCAAAGGUAGUGCUUUACAUGAGGAUCACCCAUGUAGGAUAUGGUAGGCAAAGCUUACCAGAAGGACAUGAUAAUU [Mat - Exclusion NG 3 - Mod of JL - D12] (Eterna round: R96, puzzle: Exclusion NG 3) | 167 | 56.1 | 45.1 |  |  |  |
